Assay [1] deals with FLAG-V5-Blow (Drosophila). The experiment in a line: co-IP.
For assay [2], the target named is FLAG-V5-WASP (Drosophila). The experiment in a line: co-IP.

A word on the Kd: it is the equilibrium constant for the complex coming apart. As to FLAG-Sltr (natural protein), the Kd in assay [1] came out at 48.1 nM; in assay [2] it was 6.7 nM.
